Source: PMC10397247
Values belong to the binder of their own block, whether it stands above or below them.

How the values were obtained:
[1] = biological target: T1, APC9291-AA; assay: two-hybrid library CCmax; details: mean of both orientations;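 also: natural log of median RNA to DNA barcode read ratio; higher means stronger binding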
T1 chain: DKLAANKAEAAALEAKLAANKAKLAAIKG

[2] = biological target: T2, APC8516-AA; assay: two-hybrid library CCmax; details: mean of both orientations;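 also: natural log of median RNA to DNA barcode read ratio; higher means stronger binding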
T2 chain: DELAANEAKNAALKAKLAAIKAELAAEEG

[3] = biological target: T3, APC7524-AA; assay: two-hybrid library CCmax; details: mean of both orientations;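 also: natural log of median RNA to DNA barcode read ratio; higher means stronger binding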
T3 chain: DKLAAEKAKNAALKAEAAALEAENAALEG

[4] = biological target: T4, APC4100-AA; assay: two-hybrid library CCmax;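 also: natural log of median RNA to DNA barcode read ratio; higher means stronger binding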
T4 chain: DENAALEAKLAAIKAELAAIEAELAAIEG

[5] = biological target: T5, APC9182-AA; assay: two-hybrid library CCmax; details: mean of both orientations;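 also: natural log of median RNA to DNA barcode read ratio; higher means stronger binding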
T5 chain: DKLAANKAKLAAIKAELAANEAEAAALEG

[6] = biological target: T6, APC4336-AA; assay: two-hybrid library CCmax; details: mean of both orientations;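 also: natural log of median RNA to DNA barcode read ratio; higher means stronger binding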
T6 chain: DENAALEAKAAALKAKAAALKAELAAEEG

[7] = biological target: T7, APC9806-AA; assay: two-hybrid library CCmax; details: mean of both orientations
T7 chain: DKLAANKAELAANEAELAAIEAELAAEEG

[8] = biological target: T8, APC5009-AA; assay: two-hybrid library CCmax; details: mean of both orientations
T8 chain: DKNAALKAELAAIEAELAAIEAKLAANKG

[9] = biological target: T9, APC8401-AA; assay: two-hybrid library CCmax; details: mean of both orientations
T9 chain: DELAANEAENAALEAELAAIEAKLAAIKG

[10] = biological target: T10, APC9141-AA; assay: two-hybrid library CCmax; details: mean of both orientations
T10 chain: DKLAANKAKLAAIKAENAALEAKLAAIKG

[11] = biological target: T11, APC6088-AA; assay: two-hybrid library CCmax; details: mean of both orientations
T11 chain: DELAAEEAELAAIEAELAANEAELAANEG

[12] = biological target: T12, APC5531-AA; assay: two-hybrid library CCmax; details: mean of both orientations
T12 chain: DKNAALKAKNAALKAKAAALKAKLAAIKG

[13] = biological target: T13, APC542-AA; assay: two-hybrid library CCmax; details: mean of both orientations
T13 chain: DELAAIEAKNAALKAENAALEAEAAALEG

[14] = biological target: T14, P8mS; assay: two-hybrid library CC1; details: mean of both orientations
T14 chain: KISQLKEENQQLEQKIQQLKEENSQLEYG

[15] = biological target: T15, P8; assay: two-hybrid library CC1
T15 chain: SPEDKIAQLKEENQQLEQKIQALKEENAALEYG

[16] = biological target: T16, P9; assay: two-hybrid library CC1; details: mean of both orientations
T16 chain: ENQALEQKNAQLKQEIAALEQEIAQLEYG

[17] = biological target: T17, APC4264-AA; assay: two-hybrid library CCmax
T17 chain: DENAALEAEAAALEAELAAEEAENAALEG

[18] = biological target: T18, APC4436-AA; assay: two-hybrid library CCmax; details: mean of both orientations
T18 chain: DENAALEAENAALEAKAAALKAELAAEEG

[19] = biological target: T19, APC8191-AA; assay: two-hybrid library CCmax
T19 chain: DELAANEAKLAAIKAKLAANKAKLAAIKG

[20] = biological target: T20, APC9319-AA; assay: two-hybrid library CCmax; details: mean of both orientations
T20 chain: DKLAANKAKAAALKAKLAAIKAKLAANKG

[21] = biological target: T21, APC9096-AA; assay: two-hybrid library CCmax; details: mean of both orientations
T21 chain: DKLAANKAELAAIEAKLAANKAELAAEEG

[22] = biological target: T22, APC6108-AA; assay: two-hybrid library CCmax; details: mean of both orientations
T22 chain: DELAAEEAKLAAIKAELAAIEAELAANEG

[23] = biological target: T23, APC7099-AA; assay: two-hybrid library CCmax; details: mean of both orientations
T23 chain: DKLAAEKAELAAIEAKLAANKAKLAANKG

[24] = biological target: T24, APC8910-AA; assay: two-hybrid library CCmax; details: mean of both orientations
T24 chain: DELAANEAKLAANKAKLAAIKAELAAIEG

[25] = biological target: T25, APC5383-AA; assay: two-hybrid library CCmax; details: mean of both orientations
T25 chain: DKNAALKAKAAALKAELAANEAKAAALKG

[26] = biological target: T26, 4H584-bH; assay: two-hybrid library CCNG1
T26 chain: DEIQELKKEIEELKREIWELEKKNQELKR

[27] = biological target: T27, 4H850-bH; assay: two-hybrid library CCNG1
T27 chain: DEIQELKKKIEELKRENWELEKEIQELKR

[28] = biological target: T28, 4H906-bH; assay: two-hybrid library CCNG1
T28 chain: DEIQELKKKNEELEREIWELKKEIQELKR

[29] = biological target: T29, 4H619-bH; assay: two-hybrid library CCNG1
T29 chain: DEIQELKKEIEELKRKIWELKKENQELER

[30] = biological target: T30, 4H3974-bH; assay: two-hybrid library CCNG1
T30 chain: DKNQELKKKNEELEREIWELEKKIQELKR

[31] = biological target: T31, 4H570-bH; assay: two-hybrid library CCNG1
T31 chain: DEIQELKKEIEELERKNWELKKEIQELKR

- interaction score [1]: -1.29
- interaction score [2]: -1.71
- interaction score [3]: -1.84
- interaction score [4]: 0.507
- interaction score [5]: -1.63
- interaction score [6]: -0.916
- interaction score [7]: -1.87
- interaction score [8]: 0.706
- interaction score [9]: -1.35
- interaction score [10]: -1.35
- interaction score [11]: -1.46
- interaction score [12]: -0.557
- interaction score [13]: -1.56
Binder: DENAALEAKLAAIKAELAAIEAELAAIEG [APC4100-AA]

Binder: SPEDKIAQLKEENQQLEQKIQALKEENAALEYG [P8]
- interaction score [14]: -2.75
- interaction score [15]: -2.5
- interaction score [16]: -1.88

- interaction score [17]: -1.24
- interaction score [18]: -2.34
- interaction score [19]: -1.56
- interaction score [20]: -1.52
- interaction score [21]: -1.45
- interaction score [22]: -1.5
- interaction score [23]: -1.96
- interaction score [24]: -1.81
- interaction score [25]: -1.3
Binder: DENAALEAEAAALEAELAAEEAENAALEG [APC4264-AA]

- interaction score [26]: -0.203
- interaction score [27]: -0.0332
- interaction score [28]: -0.332
- interaction score [29]: -0.167
- interaction score [30]: -0.338
- interaction score [31]: -0.965
Binder: DKNQELKKKNEELEREIWELEKKIQELKR [4H3974-bH]

- interaction score [26]: 1.18
- interaction score [27]: 0.297
- interaction score [28]: 0.202
- interaction score [29]: 1.2
Binder: DEIQELKKEIEELKREIWELEKKNQELKR [4H584-bH]
